Experimental findings from patent US20260234242A1 (HAINAN SIMCERE ZAIMING PHARMACEUTICAL, published 2026) are described below.

The target in assay [1] is T1, his-tagged human CDH6 extracellular region protein (hCDH6 ECD-his) (human, UniProt P55285 19-615).
T1 construct: also called Human CDH6-his; hCDH6-his; not shown: his tag
T1 sequence: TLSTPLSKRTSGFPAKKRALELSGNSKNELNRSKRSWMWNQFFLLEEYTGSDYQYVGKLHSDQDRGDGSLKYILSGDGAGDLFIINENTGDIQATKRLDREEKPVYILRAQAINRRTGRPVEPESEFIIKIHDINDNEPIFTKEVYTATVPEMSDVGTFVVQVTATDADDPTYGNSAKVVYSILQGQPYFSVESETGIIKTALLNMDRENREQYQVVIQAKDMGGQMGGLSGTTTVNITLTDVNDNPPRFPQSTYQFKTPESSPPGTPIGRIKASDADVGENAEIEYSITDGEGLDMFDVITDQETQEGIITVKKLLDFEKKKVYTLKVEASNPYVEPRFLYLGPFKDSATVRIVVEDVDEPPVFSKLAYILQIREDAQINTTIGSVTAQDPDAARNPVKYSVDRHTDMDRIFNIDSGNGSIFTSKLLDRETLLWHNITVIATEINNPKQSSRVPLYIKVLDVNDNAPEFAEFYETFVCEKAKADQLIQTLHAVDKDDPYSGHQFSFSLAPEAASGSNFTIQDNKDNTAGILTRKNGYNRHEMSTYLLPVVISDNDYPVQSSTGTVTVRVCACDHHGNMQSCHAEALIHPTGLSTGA
Nature of the assay: ELISA, coated antigen. A general note: An ELISA detects its analyte on a solid surface through an enzyme-linked reagent.

Assay [2] has as its target T2, human CDH6 on tumor cells (OVCAR3 cells, PA-1 cells) (human, UniProt P55285 54-790).
T2 sequence: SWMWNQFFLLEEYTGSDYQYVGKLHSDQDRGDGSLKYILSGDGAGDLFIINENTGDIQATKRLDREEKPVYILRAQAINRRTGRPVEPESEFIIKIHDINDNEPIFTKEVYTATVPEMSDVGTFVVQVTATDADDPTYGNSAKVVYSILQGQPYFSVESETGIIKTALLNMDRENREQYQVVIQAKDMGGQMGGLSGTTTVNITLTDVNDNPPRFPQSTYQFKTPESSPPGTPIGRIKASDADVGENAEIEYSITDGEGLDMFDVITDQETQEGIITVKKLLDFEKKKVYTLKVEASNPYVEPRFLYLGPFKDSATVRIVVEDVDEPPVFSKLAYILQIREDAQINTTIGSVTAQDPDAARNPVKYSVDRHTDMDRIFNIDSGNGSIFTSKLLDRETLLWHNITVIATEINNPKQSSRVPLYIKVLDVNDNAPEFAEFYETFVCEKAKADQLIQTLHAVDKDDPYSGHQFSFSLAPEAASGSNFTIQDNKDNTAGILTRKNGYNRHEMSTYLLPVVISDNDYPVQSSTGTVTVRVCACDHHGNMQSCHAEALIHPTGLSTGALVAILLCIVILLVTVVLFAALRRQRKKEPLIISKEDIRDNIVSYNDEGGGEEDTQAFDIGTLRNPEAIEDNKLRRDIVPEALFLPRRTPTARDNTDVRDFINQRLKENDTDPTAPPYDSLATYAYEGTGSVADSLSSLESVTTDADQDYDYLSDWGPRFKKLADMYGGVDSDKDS
Nature of the assay: FACS, PA-1 cells. On the procedure:
OVCAR3 cells with high expression of CDH6 and PA-1 cells with moderate expression of CDH6 were used to detect the binding activity of the antibodies to the cells. […] The cells were washed once with PBS, counted, resuspended to 2×10⁶ cells/mL in an FACS buffer (PBS+2% FBS), and then added to a 96-well plate at 50 μL/well. The chimeric antibodies were diluted with FACS buffer (PBS+2% FBS) and added to the 96-well plate at 50 μL/well, and the plate was incubated at 4° C. for 1 h. […] The dilution was added to the 96-well plate at 50 μL/well, and the plate was incubated at 4° C. for 1 h. After the plates were centrifuged and washed 2 times with PBS, the cells were resuspended in an FACS buffer. The mean fluorescence intensity (MFI) was measured using FACS Canton II (BD). Analysis was performed by the GraphPad Prism software, data were fitted, and EC50 values were calculated. The chimeric antibodies tested had strong binding to both OVCAR3 cells and PA-1 cells.
According to the above sequences, heavy chain (HC) and light chain (LC) plasmids were constructed (the nucleic acid sequences encoding the VH and VL of the antibodies were recombined into an expression vector carrying a signal peptide (SEQ ID NO: 132, […]) and a heavy chain constant region/light chain constant region sequence to obtain recombinant plasmids expressing VH-CH1-Fc/VL-CL). According to the expression and purification methods in Example 2, the hCDH6-14 humanized antibodies were obtained, and the binding activity of the humanized antibodies was detected by ELISA and FACS (see 2.2 and 2.3 for the method).
A general note: In flow cytometry, cells or beads pass a laser one at a time.

Assay [3] deals with T2, human CDH6 on tumor cells (OVCAR3 …). Nature of the assay: FACS, OVCAR3 cells, 4° C. arm of endocytosis assay. On the procedure:
OVCAR3 cells were cultured until a confluence of 90% was reached, the medium was removed by pipetting, the cells were washed once with PBS, and then treated with an enzyme-free cell dissociation solution (Versene, purchased from Gibco, Cat. No. 15040-066) and the cells were collected. The cells were washed once with PBS, counted, resuspended to 2×10⁶ cells/mL in an FACS buffer (PBS+2% FBS), and then added to two 96-well plates at 50 μL/well. The chimeric antibodies were diluted with FACS buffer (PBS+2% FBS) to 10 μg/mL and separately added to the two 96-well plates at 50 μL/well, and the plates were incubated at 4° C. for 1 h. After the cells were washed 3 times with PBS, the cells were resuspended in an FACS buffer. One 96-well plate was incubated at 4° C. for 1 h, and the other 96-well plate was incubated at 37° C. for 1 h. […] After the plates were centrifuged and washed 2 times with PBS, the cells were resuspended in an FACS buffer. The mean fluorescence intensity (MFI) was measured using FACS Canton II (BD). The chimeric antibodies tested all had good endocytic activity.
Some of the antibodies were selected for the endocytic activity assay, and the method for assaying the endocytic activity of the humanized antibodies in OVCAR3 cells was the same as that in 2.4. The humanized antibodies tested all had good endocytic activity.

B1: hCDH6-14-H6L3 (antibody, V domains shown)
VH: EVQLVQSGAEVKKPGASVKVSCKASGYTFTDNYINWVRQAPGQRLEWMGWIYPGTGNSYYNEKFKGRVTITVDTSASTAYMELSSLRSEDTAVYLCASSYGDSFDYWGQGTTVTVSS
VL: DIVMTQSPDSLAVSLGERATINCRASQDIRNYLNWYQQKPGQTPKLLISYTSRLHSGVPDRFSGSGSGTDFTLTISSLQAEDVAVYYCQQYSQLPWTFGGGTKVEIK
notes: Humanized
One may read the EC50 as the concentration at which the effect is half-maximal. A low value points to an effect from little substance. As to B1, in assay [1], the EC50 was determined as 0.062 nM and the “Max OD450” value came to 2.72 OD450. Also, in assay [2], it took 0.25 nM to reach a half-maximal effect (EC50) and the “Max MFI” value amounted to 3890 MFI. Also, in assay [3], the “MFI_4° C.” value is 16100 MFI.
